The values below come from patent publication US20090022728A1 (RINAT NEUROSCIENCE, published 2009).

Test [1] concerns the target T1, biotinylated Aβ1-40 peptide (biotinylated (N-biotinylated in Example 7)).
T1 construct: captured on streptavidin (SA) chip; also called Biotinylated Aβ peptide 1-40; Aβ1-40 on SA chip
Briefly: SPR, Fab over Aβ1-40 on SA chip; KD=koff/kon. The method, then: (§1) Affinities of 9TL Fab fragment and its variants Fab fragments were determined by Surface Plasmon Resonance (SPR) system (BIAcore 3000™, BIAcore, Inc., Piscaway, N.J.). SA chips (streptavidin) were used according to the supplier's instructions. Biotinylated Aβ peptide 1-40 was diluted into HBS-EP (10 mM HEPES pH 7.4, 150 mM NaCl, 3 mM EDTA, 0.005% P20) and injected over the chip at a concentration of 0.005 mg/mL. Using variable flow time across the individual chip channels, two ranges of antigen density were achieved: 10-200 response units (RU) for detailed kinetic studies and 500-600 RU for concentration studies and screening. […] HBS-EP buffer was used as running buffer for all the BIAcore assays. […] The concentrations of the Fab proteins were determined by ELISA and/or SDS-PAGE electrophoresis using a standard Fab of known concentration (determined by amino acid analysis). Kinetic association rates (kₒₙ) and dissociation rates (koff) were obtained simultaneously by fitting the data to a 1:1 Langmuir binding model (Karlsson, R. Roos, H. Fagerstam, L. Petersson, B. (1994). Methods Enzymology 6. 99-110) using the BIAevaluation program. Equilibrium dissociation constant (KD) values were calculated as koff/kₒₙ.
(§2) All amino acid substitutions of the variants shown in Table 3 are described relative to the sequence of 9TL. KD and other kinetic parameters were determined by BIAcore analysis described above with Aβ₁₋₄₀ immobilized on SA chip.

In test [2] the target is T1, biotinylated Aβ1-40 peptide. The test can be described thus: SPR, Fab over Aβ1-40 on SA chip; kon may be assumed = 9TL (footnote 2). The method, then:
as §1, §2
Background: In SPR one partner is held on a chip, and binding of the other changes the refractive index at the surface.

The target is the same in test [3]. Briefly: SPR, Fab over Aβ1-40 on SA chip. How it is done: as §1, §2
The next test has as its target T2, Aβ1-40 peptide.
T2 construct: synthetic peptide, not biotinylated; also called 1-40 (WT); beta amyloid 1-40
The test can be described thus: ELISA, nonbiotinylated peptide on plate. The method, then:
(§3) ELISA was used for measuring binding of antibody 6G and variants to nonbiotinylated Aβ peptides. NUNC maxisorp plates were coated with 2.5 ug/ml of Aβ peptides in PBS pH 7.4 for more than 1 hour at 4° C. Plates were blocked with 1% BSA in PBS buffer pH 7.4. Primary antibody (from cell supernatants, serum containing anti-Aβ antibody, or purified full antibody or Fabs at desired dilution) was incubated with the immobilized Aβ peptides for 1 h at room temperature. After washing, the plates were incubated with secondary antibody, a HRP conjugated goat anti-human kappa chain antibody (MP Biomedicals, 55233) at 1:5000 dilution. After washing, bound secondary antibody was measured by adding TMB substrate (KPL, 50-76-02, 50-65-02). The HRP reaction was stopped by adding 1M phosphoric acid and absorbance at 450 nm was measured.
(§4) All amino acid substitutions of the variants shown in Table 8 are described relative to the sequence of 6G. Binding was determined by ELISA described above with nonbiotinylated Aβ₁₋₄₀ or Aβ₁₋₄₂ immobilized on the surface of an ELISA plate.
(ELISA stands for enzyme-linked immunosorbent assay.)

A further test addresses T3, Aβ1-42 peptide.
T3 construct: also called 1-42 (WT)
The test can be described thus: ELISA, nonbiotinylated peptide on plate. How it is done:
as §3, §4

Where a chain is given by its changes, count along the chain named. Numbers in names are those of the source.

T1 sequence (peptide, as listed by the source): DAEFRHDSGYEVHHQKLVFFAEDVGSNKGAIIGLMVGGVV
T3 sequence (peptide, as listed by the source): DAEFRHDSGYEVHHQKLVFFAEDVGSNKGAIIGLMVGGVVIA

B1: 9TL variant M49 Fab (Fab, V domains shown)
VH: QVQLVQSGAEVKKPGASVKVSCKASGYYTEAYYIHWVRQAPGQGLEWMGRIDPATGNTKYAPRLQDRVTMTRDTSTSTVYMELSSLRSEDTAVYYCASLYSLPNYWGQGTTVTVSS
VL: DVVMTQSPLSLPVTLGQPASISCKSSQSLLYSDAKTYLNWFQQRPGQSPRRLIYQISRLDPGVPDRFSGSGSGTDFTLKISRVEAEDVGVYYCLQGTHYPVLFGQGTRLEIKR
notes: Fab; human IgG2 CH1 and kappa CL
Broadly, the Kd is the equilibrium constant for the complex coming apart. High values mean lower affinity, low ones higher affinity. Usually kon stands for the rate constant with which the complex forms. One may read the koff as the rate constant with which the complex falls apart. Consider B1, for which the affinity in test [1], expressed as Kd, was 81.8 nM. The kon in test [2] turned out to be 318000 M⁻¹ s⁻¹. Also, the koff in test [3] was 0.026 s⁻¹.

B2: 9TL variant W1 Fab (Fab, V domains shown)
VH: B1 VH with N104V
VL: B1 VL with Y31A, A34S, L102T
notes: as for B1
In test [1], B2 showed a Kd of 28.3 nM. For the same molecule, in test [2], the kon came to 318000 M⁻¹ s⁻¹. In addition, the koff in test [3] is 0.009 s⁻¹.

B3: 9TL variant W5 Fab (Fab, V domains shown)
VH: B1 VH with N104V
VL: B1 VL with Y31H, K35A, L102T
notes: as for B1
In turn, B3 came in with a Kd in test [1] of 12.6 nM. In addition, in test [2], the kon was 318000 M⁻¹ s⁻¹. In addition, the koff in test [3] amounted to 0.004 s⁻¹.

B4: 9TL variant M50 Fab (Fab, V domains shown)
VH: B1 VH with N104F
VL: B1 VL
notes: as for B1
Molecule B4 had a Kd in test [1] of 84.9 nM. In test [2], the kon turned out to be 318000 M⁻¹ s⁻¹. Moreover, the koff in test [3] worked out at 0.027 s⁻¹.

B5: 9TL variant M54 Fab (Fab, V domains shown)
VH: B1 VH with N104V, Y105S
VL: B1 VL
notes: as for B1
With B5, the Kd in test [1] was 7.55 nM. The kon in test [2] came out at 318000 M⁻¹ s⁻¹. The koff in test [3] came out at 0.0024 s⁻¹.

B6: 9TL variant M55 Fab (Fab, V domains shown)
VH: B1 VH with N104V, Y105I
VL: B1 VL
notes: as for B1
B6 returned a Kd in test [1] of 9.43 nM. Besides, the kon in test [2] amounted to 318000 M⁻¹ s⁻¹. In addition, in test [3], the koff was found to be 0.003 s⁻¹.

B7: 9TL variant M56 Fab (Fab, V domains shown)
VH: B1 VH with N104V, Y105V
VL: B1 VL
notes: as for B1
In test [1], B7 came in with a Kd of 11 nM. The molecule also gave a kon in test [2] of 318000 M⁻¹ s⁻¹. The molecule further returned a koff in test [3] of 0.0035 s⁻¹.

B8: 9TL variant M52 Fab (Fab, V domains shown)
VH: B1 VH with N104V, Y105F
VL: B1 VL
notes: as for B1
Consider B8, for which, in test [1], the affinity, expressed as Kd, was 4.09 nM. For the same molecule, the kon in test [2] came out at 318000 M⁻¹ s⁻¹. This molecule had a koff in test [3] of 0.0013 s⁻¹.

B9: 9TL variant M51 Fab (Fab, V domains shown)
VH: B1 VH with N104V, Y105H
VL: B1 VL
notes: as for B1
B9: binding in test [1] was characterised by a dissociation constant (Kd) of 2.7 nM. This molecule gave an association rate constant (kon) in test [2] of 318000 M⁻¹ s⁻¹. In test [3], this molecule yielded a koff of 0.00086 s⁻¹.

B10: 9TL variant M53 Fab (Fab, V domains shown)
VH: B1 VH with N104V, Y105W
VL: B1 VL
notes: as for B1
Regarding B10, the affinity in test [1], expressed as Kd, was 4.09 nM. The kon in test [2] turned out to be 318000 M⁻¹ s⁻¹. For the same molecule, the koff in test [3] was found to be 0.0013 s⁻¹.

B11: 9TL variant W8 Fab (Fab, V domains shown)
VH: B1 VH with N104V
VL: B1 VL with Y31H, A34S, K35A, L102T
notes: as for B1
Molecule B11 registered a Kd in test [1] of 11.9 nM. The kon in test [2] is 318000 M⁻¹ s⁻¹. Further, the koff in test [3] is 0.0038 s⁻¹.

B12: 6G heavy chain variant 3C (D103G) (antibody, V domains shown)
VH: QVQLVQSGAEVKKPGASVKVSCKASGYTFTTYAIHWVRQAPGQGLEWMGFTSPYSGVSNYNQKFKGRVTMTRDTSTSTVYMELSSLRSEDTAVYYCARFDNYGRGYVRDYWGQGTLVTVS
VL: DIVMTQSPDSLAVSLGERATINCRASESVDNDRISFLNWYQQKPGQPPKLLIYAATKQGTGVPDRFSGSGSGTDFTLTISSLQAEDVAVYYCQQSKEFPWSFGGGTKVEIKR
As to B12, the “A450 ELISA” value with Aβ1-40 peptide was 2.3 A450; in the test with Aβ1-42 peptide, 0.76 A450.

B13: 6G heavy chain variant 11D (Y102M) (antibody, V domains shown)
VH: B12 VH with Y102M, G103D
VL: B12 VL
B13: the “A450 ELISA” value in the test with Aβ1-40 peptide was found to be 0.29 A450; with Aβ1-42 peptide it was 0.24 A450.

B14: 6G light chain variant 10E (S95L) (antibody, V domains shown)
VH: B12 VH with G103D
VL: B12 VL with S95L
In the case of B14, the “A450 ELISA” value with Aβ1-40 peptide was found to be 0.08 A450.

B15: 6G heavy chain variant 10G (Y102I) (antibody, V domains shown)
VH: B12 VH with Y102I, G103D
VL: B12 VL
In the case of B15, the “A450 ELISA” value with Aβ1-40 peptide is 0.63 A450; in the test with Aβ1-42 peptide it was 0.22 A450.

B16: 6G heavy chain variant 4D (R104Q) (antibody, V domains shown)
VH: B12 VH with G103D, R104Q
VL: B12 VL
For B16, the “A450 ELISA” value with Aβ1-40 peptide came to 2.45 A450; with Aβ1-42 peptide, 1 A450.

B17: 6G light chain variant 7E (Q94R) (antibody, V domains shown)
VH: B12 VH with G103D
VL: B12 VL with Q94R
In the case of B17, in the test with Aβ1-40 peptide, the “A450 ELISA” value stood at 0.09 A450.

B18: 6G light chain variant 3A (Q93P) (antibody, V domains shown)
VH: B12 VH with G103D
VL: B12 VL with Q93P
As for B18, the “A450 ELISA” value with Aβ1-40 peptide turned out to be 0.08 A450; in the test with Aβ1-42 peptide it was 0.13 A450.

B19: 6G heavy chain variant 8H (N101H) (antibody, V domains shown)
VH: B12 VH with N101H, G103D
VL: B12 VL
B19: in the test with Aβ1-42 peptide, the “A450 ELISA” value stood at 0.19 A450.

B20: 6G light chain variant 7F (Q94K) (antibody, V domains shown)
VH: B12 VH with G103D
VL: B12 VL with Q94K
As to B20, the “A450 ELISA” value with Aβ1-40 peptide is 0.12 A450.

B21: 6G heavy chain variant 9E (N101R) (antibody, V domains shown)
VH: B12 VH with N101R, G103D
VL: B12 VL
Consider B21, for which, in the test with Aβ1-42 peptide, the “A450 ELISA” value is 0.26 A450.

B22: 6G heavy chain variant 4B (R104F) (antibody, V domains shown)
VH: B12 VH with G103D, R104F
VL: B12 VL
For B22, the “A450 ELISA” value in the test with Aβ1-40 peptide was determined as 2.48 A450; with Aβ1-42 peptide it was 0.71 A450.

B23: 6G light chain variant 6E (E97P) (antibody, V domains shown)
VH: B12 VH with G103D
VL: B12 VL with E97P
As to B23, the “A450 ELISA” value with Aβ1-40 peptide is 0.12 A450.

B24: 6G heavy chain variant 6F (R104S) (antibody, V domains shown)
VH: B12 VH with G103D, R104S
VL: B12 VL
With B24, the entries for the “A450 ELISA” value with Aβ1-40 peptide and with Aβ1-42 peptide were 2.28 A450 and 0.62 A450, respectively.

B25: 6G light chain variant 5B (Q94G) (antibody, V domains shown)
VH: B12 VH with G103D
VL: B12 VL with Q94G
For B25, the “A450 ELISA” value with Aβ1-40 peptide is 0.09 A450.

B26: 6G light chain variant 2H (Q93K) (antibody, V domains shown)
VH: B12 VH with G103D
VL: B12 VL with Q93K
As for B26, the “A450 ELISA” value in the test with Aβ1-40 peptide amounted to 0.07 A450; in the test with Aβ1-42 peptide it was 0.13 A450.
